Assay results as given in patent US20240059799A1 (Pfizer, published 2024).
Residue numbers refer to the chain shown, from its start. Values belong to the binder of their own block, whether it stands above or below them.

What was measured:
[1] = target: T1, human IL-23 (human, UniProt P29460 23-328; Q9NPF7 20-189); assay: cell-based or functional assay
T1 sequence 1: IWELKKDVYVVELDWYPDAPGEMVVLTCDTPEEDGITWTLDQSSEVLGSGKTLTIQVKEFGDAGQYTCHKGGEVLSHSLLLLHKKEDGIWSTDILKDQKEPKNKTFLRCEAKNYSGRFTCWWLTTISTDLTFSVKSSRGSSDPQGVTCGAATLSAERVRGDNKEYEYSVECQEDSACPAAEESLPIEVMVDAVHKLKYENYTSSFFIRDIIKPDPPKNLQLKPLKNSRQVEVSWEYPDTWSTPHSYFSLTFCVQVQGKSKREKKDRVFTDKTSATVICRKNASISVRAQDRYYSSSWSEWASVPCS
T1 sequence 2: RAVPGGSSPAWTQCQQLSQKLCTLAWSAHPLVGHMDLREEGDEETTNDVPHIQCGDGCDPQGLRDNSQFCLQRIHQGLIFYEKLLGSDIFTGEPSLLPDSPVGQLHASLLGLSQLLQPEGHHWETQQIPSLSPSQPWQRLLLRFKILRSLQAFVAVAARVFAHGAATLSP

[2] = target: T2, recombinant human TL1A (human, UniProt O95150 71-251); assay: cell-based or functional assay
T2 chain: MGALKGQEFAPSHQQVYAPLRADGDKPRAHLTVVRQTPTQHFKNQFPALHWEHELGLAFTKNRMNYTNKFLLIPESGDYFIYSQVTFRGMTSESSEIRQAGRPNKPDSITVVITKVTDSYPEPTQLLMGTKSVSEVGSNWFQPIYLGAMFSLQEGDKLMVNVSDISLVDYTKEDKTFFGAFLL

[3] = target: T3, human IL-12 (human, UniProt P29460 23-328; P29459 23-219); assay: cell-based or functional assay
T3 sequence 1: T1 sequence 1
T3 sequence 2: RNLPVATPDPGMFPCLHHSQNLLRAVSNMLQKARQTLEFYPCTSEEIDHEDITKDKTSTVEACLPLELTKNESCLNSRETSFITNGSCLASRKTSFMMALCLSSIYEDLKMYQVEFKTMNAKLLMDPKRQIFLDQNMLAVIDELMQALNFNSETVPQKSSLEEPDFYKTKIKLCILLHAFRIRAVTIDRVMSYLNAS

[4] = target: T4, human IL-23 (human, UniProt P29460 23-328; Q9NPF7 20-189); assay: SPR, bispecific held on captured biotinylated human TL1A, then human IL-23 injected (simultaneous binding)
T4 construct: Heterodimer p40/p19; Whole entries as named; also called IL-23 Human; recombinant human IL-23
T4 sequence 1: T1 sequence 1
T4 sequence 2: T1 sequence 2
Protocol: SPR was used to determine if the bispecific variants could simultaneously bind TL1A and IL-23, containing the p40 domain. For this analysis, a semi-quantitative SPR method was developed using Biacore™ T200 (GE Healthcare) instrumentation. […] The bispecific was injected for 90 seconds at a concentration of 20 μg/m L, a flow rate of 50 μL/minute, and captured to a level of approximately 40-150 RU. Next, recombinant human IL-23 was injected for 60 seconds and a flow rate of 50 μL/minute at a concentration range of 0.37-15 nM.

[5] = target: T5, recombinant human TL1A (human, UniProt O95150 71-251); assay: SPR 37 C, biotinylated human TL1A captured, bispecific injected
T5 construct: Homotrimeric cytokine; biotinylated with Sulfo-NHS-biotin where captured for SPR, coated unlabelled in ELISA, soluble in bioassays; also called TNFSF15
T5 chain: T2 chain
Protocol: (§1) SPR was utilized to determine if the affinity constants of each arm of the bispecific variants binding human IL-23, containing the p40 subunit, and human TL1A were the same for each bispecific approach. For the analysis of the p40 binding arm, kinetic assays were conducted at 37° C. using a collection rate of 10 Hz on a Biacore™ 8 K+ instrument (GE Healthcare). An anti-human IgG antibody (anti-human Fc, GE Healthcare, 22-0648-88) was amine coupled to all four flow cells of a carboxymethylated dextran coated sensor chip (GE Healthcare,) using the manufacturer's recommended protocol. […] For the analysis of the TL1A binding arm, kinetic assays were conducted at 37° C. using a collection rate of 10 Hz on a Biacore™ T200 instrument (GE Healthcare).

[6] = target: T4, human IL-23; assay: SPR 37 C, bispecific captured by anti-human Fc, human IL-23 injected
Protocol: as §1

[7] = target: T6, full-length human TL1A on CHO-K1 cells (human, UniProt O95150 1-251); assay: flow cytometry on CHO-K1 cells stably expressing full-length human TL1A, PE anti-human IgG, median fluorescent intensity
T6 construct: whole, on cells; also called cells over-expressing human TL1A
T6 sequence (looked up): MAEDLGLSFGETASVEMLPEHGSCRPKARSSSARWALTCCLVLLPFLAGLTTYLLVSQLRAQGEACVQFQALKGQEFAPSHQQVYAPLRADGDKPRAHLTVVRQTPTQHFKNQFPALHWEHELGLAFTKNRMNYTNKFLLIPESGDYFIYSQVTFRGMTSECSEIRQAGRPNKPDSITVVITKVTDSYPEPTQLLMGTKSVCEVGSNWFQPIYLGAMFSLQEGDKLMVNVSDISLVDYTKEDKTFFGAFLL
Protocol: A cell binding assay was performed to examine if the panel of [xTL1A] bivalent antibody variants could bind to human TL1A over-expressed on the cell surface. […] [xTL1A] bivalent antibody variants were incubated with cells on ice for 30-60 minutes at a concentration of either 1 μg/mL or 20 μg/mL. Cells were pelleted by centrifugation at 1500 RPM for 5 minutes at 4° C. and supernatant was discarded by aspiration. The cells were washed three times with DPBS with 4% FBS buffer as described. Cells were resuspended in 100 μL of PE-anti-human IgG (Life technologies Catalog number H10104) diluted 1:500 in DPBS with 4% FBS buffer and incubated on ice for 15 minutes. Cells were washed three times as described and resuspended in 200 μL of DPBS with 4% FBS buffer, then run on a flow cytometry instrument.

KIT-225 STAT3 assay IL-23, Bioactivity relative to p40-0003 [1]: 2.4 fold | KIT-225 STAT3 assay IL-23 IC50 [1]: 3.9 nM | NF-κB assay IC50 (TF-1 reporter cells) [2]: 91.1 pM | NF-κB assay, Bioactivity relative to TL1A-0372 [2]: 0.9 fold | KIT-225 STAT4 assay IL-12, Bioactivity relative to p40-0003 [3]: 1.7 fold | KIT-225 STAT4 assay IL-12 IC50 [3]: 5.7 nM
B1: p40TL1A-0001 bispecific antibody (bispecific antibody)
heavy 1: EVQLVQSGAEVKKPGESLKISCKGSGYSFTTYWLGWVRQMPGKGLDWIGIMSPVDSDIRYSPSFQGQVTMSVDKSITTAYLQWNSLKASDTAMYYCARRRPGQGYFDFWGQGTLVTVSSASTKGPSVFPLAPSSKSTSGGTAALGCLVKDYFPEPVTVSWNSGALTSGVHTFPAVLQSSGLYSLSSVVTVPSSSLGTQTYICNVNHKPSNTKVDKKVEPKSCRKTHTCPRCPAPEAAGAPSVFLFPPKPKDTLMISRTPEVTCVVVDVSHEDPEVKFNWYVDGVEVHNAKTKPREEQYNSTYRVVSVLTVLHQDWLNGKEYKCKVSNKALPAPIEKTISKAKGQPREPQVYTLPPSREEMTKNQVSLTCLVKGFYPSDIAVEWESNGQPENNYKTTPPVLDSDGSFFLYSRLTVDKSRWQQGNVFSCSVLHEALHSHYTQKSLSLSPGK
light 1: not shown
heavy 2: QVQLVQSGAEVKKPGASVKVSCKASGYDYTYYGISWVRQAPGQGLEWMGWISTYNTGTHYAPSLQGRVTMTTDTSTSTAYMELRSLRSDDTAVYYCARESYYGSGAFRGGMDVWGQGTTVTVSSASTKGPSVFPLAPSSKSTSGGTAALGCLVKDYFPEPVTVSWNSGALTSGVHTFPAVLQSSGLYSLSSVVTVPSSSLGTQTYICNVNHKPSNTKVDKKVEPKSCEKTHTCPECPAPEAAGAPSVFLFPPKPKDTLMISRTPEVTCVVVDVSHEDPEVKFNWYVDGVEVHNAKTKPREEQYNSTYRVVSVLTVLHQDWLNGKEYKCKVSNKALPAPIEKTISKAKGQPREPQVYTLPPSREEMTKNQVSLTCEVKGFYPSDIAVEWESNGQPENNYKTTPPVLDSDGSFFLYSKLTVDKSRWQQGNVFSCSVLHEALHSHYTQKSLSLSPGK
light 2: not shown

NF-κB assay IC50 (TF-1 reporter cells) [2]: 102 pM | NF-κB assay, Bioactivity relative to TL1A-0372 [2]: 1 fold
B2: TL1A-0372 monovalent bispecific antibody (bispecific antibody, human IgG1, kappa)
heavy 1: B1 heavy 2 with E228D, E235P, Y356C, T373W, E375L
heavy 2: not shown
light: not shown

KIT-225 STAT3 assay IL-23, Bioactivity relative to p40-0003 [1]: 2.3 fold | KIT-225 STAT3 assay IL-23 IC50 [1]: 3.8 nM | NF-κB assay IC50 (TF-1 reporter cells) [2]: 131 pM | NF-κB assay, Bioactivity relative to TL1A-0372 [2]: 1.3 fold | KIT-225 STAT4 assay IL-12, Bioactivity relative to p40-0003 [3]: 1.4 fold | KIT-225 STAT4 assay IL-12 IC50 [3]: 4.6 nM
B3: p40TL1A-0032 bispecific antibody (bispecific antibody)
heavy 1: B1 heavy 1 with L130K, V187S, R223D, R230P, Y351C, T368W, R411K
light 1: DIQMTQSPSSLSASVGDRVTITCRASQGISSWLAWYQQKPEKAPKSLIYAASSLQSGVPSRFSGSGSGTDFTLTISSLQPEDFATYYCQQYNIYPYTFGQGTKLEIKRTVAAPSVFIFPPSDEQLKSGTASVSCLLNNFYPREAKVQWKVDNALQSGNSQESVTEQDSKDSTYSLDSTLTLSKADYEKHKVYACEVTHQGLSSPVTKSFNRGEC
heavy 2: B1 heavy 2 with L135E, S190G, E228D, E235P, S361C, T373S, E375A, Y414V
light 2: not shown

Kd [4]: 0.0791 nM | koff [4]: 0.000519 s⁻¹ | kon [4]: 6.56e+06 M⁻¹ s⁻¹ | Kd [5]: 0.253 nM | koff [5]: 5.52e-05 s⁻¹ | kon [5]: 218000 M⁻¹ s⁻¹ | Kd [6]: 0.557 nM | koff [6]: 0.00115 s⁻¹ | kon [6]: 2.07e+06 M⁻¹ s⁻¹
B4: p40TL1A-0033 (bispecific antibody, human IgG1, kappa)
heavy: B1 heavy 1 with R223D, R230P, Y351C, T368W, R411K
light: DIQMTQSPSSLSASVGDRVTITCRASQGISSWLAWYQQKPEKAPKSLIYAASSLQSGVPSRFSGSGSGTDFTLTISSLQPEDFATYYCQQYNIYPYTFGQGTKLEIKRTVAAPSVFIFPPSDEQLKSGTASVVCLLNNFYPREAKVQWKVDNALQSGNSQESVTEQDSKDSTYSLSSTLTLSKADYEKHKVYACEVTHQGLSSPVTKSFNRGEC
chain 1: not shown
chain 2: QVQLVQSGAEVKKPGASVKVSCKASGYDYTYYGISWVRQAPGQGLEWMGWISTYNTGTHYAPSLQGRVTMTTDTSTSTAYMELRSLRSDDTAVYYCARESYYGSGAFRGGMDVWGQGTTVTVSSASTKGPSVFPLAPSSKSTSGGTAALGCLVKDYFPEPVTVSWNSGALTSGVHTFPAVLQSSGLYSLSSVVTVPSSSLGTQTYICNVNHKPSNTKVDKKVEPKSC
notes: single cell, KiH, modified Fd, LS

KIT-225 STAT3 assay IL-23, Bioactivity relative to p40-0003 [1]: 1.4 fold | KIT-225 STAT3 assay IL-23 IC50 [1]: 3.4 nM | NF-κB assay IC50 (TF-1 reporter cells) [2]: 50.9 pM | NF-κB assay, Bioactivity relative to TL1A-0372 [2]: 0.5 fold | KIT-225 STAT4 assay IL-12, Bioactivity relative to p40-0003 [3]: 0.9 fold | KIT-225 STAT4 assay IL-12 IC50 [3]: 3 nM
B5: p40TL1A-0021 bispecific antibody (bispecific antibody)
heavy 1: B1 heavy 1 with R230P
light 1: not shown
heavy 2: B1 heavy 2 with E235P
light 2: not shown

KIT-225 STAT3 assay IL-23, Bioactivity relative to p40-0003 [1]: 2.1 fold | KIT-225 STAT3 assay IL-23 IC50 [1]: 3.4 nM | NF-κB assay IC50 (TF-1 reporter cells) [2]: 105 pM | NF-κB assay, Bioactivity relative to TL1A-0372 [2]: 1 fold | KIT-225 STAT4 assay IL-12, Bioactivity relative to p40-0003 [3]: 2 fold | KIT-225 STAT4 assay IL-12 IC50 [3]: 6.6 nM
B6: p40TL1A-0018 bispecific antibody (bispecific antibody, human IgG1, kappa)
heavy 1: B1 heavy 1 with R223D, R230P, T368W, R411K
light 1: not shown
heavy 2: B1 heavy 2 with E228D, E235P, T373S, E375A, Y414V
light 2: not shown

KIT-225 STAT3 assay IL-23, Bioactivity relative to p40-0003 [1]: 2.2 fold | KIT-225 STAT3 assay IL-23 IC50 [1]: 3.6 nM | NF-κB assay IC50 (TF-1 reporter cells) [2]: 106 pM | NF-κB assay, Bioactivity relative to TL1A-0372 [2]: 1 fold | KIT-225 STAT4 assay IL-12, Bioactivity relative to p40-0003 [3]: 1.3 fold | KIT-225 STAT4 assay IL-12 IC50 [3]: 4.3 nM
B7: p40TL1A-0024 bispecific antibody (bispecific antibody, human IgG1, kappa)
heavy 1: B1 heavy 1 with R223D, R230P
light 1: not shown
heavy 2: B1 heavy 2 with E228D, E235P
light 2: not shown

binding result [7]: no binding (tested: 20 ug/mL)
B8: [xTL1A]-0360 (antibody, human IgG1, kappa, V domains shown)
VH: not shown
VL: DIQMTQSPSSLSASVGDRVTITCRASQSVSSYLAWYQQKPGKAPKLLIYDASNRATGVPSRFSGSGSGTDFTLTISSLQPEDFATYYCQQRSNWPWTFGQGTKVEIKR
notes: bivalent disabled antibody, IgG1 effector-function-minimized/kappa

KIT-225 STAT3 assay IL-23, Bioactivity relative to p40-0003 [1]: 1 fold | KIT-225 STAT3 assay IL-23 IC50 [1]: 1.6 nM | KIT-225 STAT4 assay IL-12, Bioactivity relative to p40-0003 [3]: 1 fold | KIT-225 STAT4 assay IL-12 IC50 [3]: 3.3 nM
B9: p40-0003 antibody (antibody, human IgG1, kappa, V domains shown)
VH: EVQLVQSGAEVKKPGESLKISCKGSGYSFTTYWLGWVRQMPGKGLDWIGIMSPVDSDIRYSPSFQGQVTMSVDKSITTAYLQWNSLKASDTAMYYCARRRPGQGYFDFWGQGTLVTVSS
VL: DIQMTQSPSSLSASVGDRVTITCRASQGISSWLAWYQQKPEKAPKSLIYAASSLQSGVPSRFSGSGSGTDFTLTISSLQPEDFATYYCQQYNIYPYTFGQGTKLEIKR
